# From paper PMC4209899
# System: Ifit1
# Assay: filter binding
# Conditions: 5' cap 0 (N-7 methylguanosine)
substance,measurement,value
"G3 VEEV TRD 5'-UTR RNA, cap 0",Kd,0.091 µM
